# Measured values from publication PMC4579573.
# pKd: −log10 of the molar value.
# Legend:
# [1] = target: K63-linked diUb covalently coupled to AlexaFluor-488 (UniProt P0CG48); experiment: fluorescence polarisation; complex titrated against 10 nM AlexaFluor-488 K63-linked diUb tracer
# [2] = target: Cf BRCC36–KIAA0157 binary complex (C. floridanus) (UniProt E2AXC7); experiment: SEC-MALS; complexes and subcomplexes purified from insect cells; size exclusion chromatography coupled to multi-angle light scattering (Figures S1B-E and S8E-G)
# [3] = as above
# [4] = target: CfBRCC36(Ala205Asp + Ile212Asp)–KIAA0157ΔC heterodimer (C. floridanus); experiment: as above
# [5] = target: CfBRCC36(Ala205Asp)–KIAA0157ΔC heterodimer (C. floridanus)
# [6] = target: CfBRCC36(Ile212Asp)–KIAA0157ΔC heterodimer (C. floridanus)
# [7] = target: unlabeled K63 linked diUb (UniProt P0CG48)
# [8] = target: CfBRCC36–KIAA0157ΔC heterodimer (C. floridanus); experiment: SEC-MALS; complexes and subcomplexes purified from insect cells; size exclusion chromatography coupled to multi-angle light scattering (Figures S1B-E and S8E-G)
# [9] = target: CfBRCC36–KIAA0157–BRCC45 triple complex (C. floridanus) (UniProt E2AXC7); experiment: as above
# [10] = target: H. Sapiens ARISC (BRCC36–Abraxas–BRCC45–MERIT40) complex (H. sapiens) (UniProt P46736); experiment: as above
substance,measurement,setting,value
BRCC36 (E30A+A205D+I212D)-KIAA0157ΔC complex (from UniProt E2AXC7 1-253),pKd,[1],5.66
BRCC36(E30A)-KIAA0157ΔC complex (from UniProt E2AXC7 1-253),pKd,[1],5.62
Cf BRCC36–KIAA0157 binary complex (from UniProt E2AXC7 1-253),stoichiometry N,[2],2
CfBRCC36(Ala205Asp + Ile212Asp)–KIAA0157ΔC heterodimer,percent eluting as a monomer of heterodimers,[3],85% major peak
CfBRCC36(Ala205Asp + Ile212Asp)–KIAA0157ΔC heterodimer (complex),percent eluting as super dimers,[4],15%
CfBRCC36(Ala205Asp)–KIAA0157ΔC heterodimer,percent eluting as monomers of heterodimers,[3],"70% and 36% of proteins, respectively, eluting as monomers of heterodimers"
CfBRCC36(Ala205Asp)–KIAA0157ΔC heterodimer (complex),"cleavage of a K63-linked diUb fluorigenic substrate in vitro, at near saturating substrate concentrations (>10 μM diUb) (fold less active than WT)",[5],10
CfBRCC36(Ile212Asp)–KIAA0157ΔC heterodimer,percent eluting as monomers of heterodimers,[3],"70% and 36% of proteins, respectively, eluting as monomers of heterodimers"
CfBRCC36(Ile212Asp)–KIAA0157ΔC heterodimer (complex),"cleavage of a K63-linked diUb fluorigenic substrate in vitro, at near saturating substrate concentrations (>10 μM diUb) (fold less active than WT)",[6],10
CfBRCC36–KIAA0157ΔC heterodimer (complex),"Km, Michaelis-Menten kinetic analysis for cleavage of K63 diUb (Figure 6B)",[7],4.2 µM
same,stoichiometry N,[8],2
CfBRCC36–KIAA0157–BRCC45 triple complex (from UniProt E2AXC7 1-253),stoichiometry N,[9],2
H. Sapiens ARISC (BRCC36–Abraxas–BRCC45–MERIT40) complex (from UniProt P46736 1-316; Q6UWZ7 1-409; Q9NXR7 1-383; Q9NWV8 1-329),stoichiometry N,[10],2
